# Results taken from the supplement of paper PMC9732359.
# ± gives the uncertainty stated by the source.
# Assay: protein stability index of a GFP-peptide fusion (yeast GPS) (PSI 1-4); higher = more stable; sorted into four equal gates, so the index is relative within each strain
# Settings: doa10∆
# Outline: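 Mid-log yeast cultures in leucine-free medium, carrying a pooled plasmid library, were sorted into four equal gates by their GFP/Cherry fluorescence ratio. Each plasmid expressed Cherry along with GFP fused upstream of a tiled 17-residue yeast protein peptide. Plasmids recovered from each gate were PCR-amplified and Illumina-sequenced, with reads assigned to strains by barcodes. The protein stability index was obtained by summing each gate's read frequency weighted by its gate number.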
row,Sequence,protein stability index
1,KPAEKNNNETSKPAFSF [YJL041W/NSP1],1.65 ± 0.15
2,KPAFSFGAKPDENKASA [YJL041W/NSP1],3.16 ± 0.093
3,KPETLSIGKNPFNKPNI [SWI3],2.85 ± 0.044

# Same assay, conditions: pdr5∆
row,Sequence,protein stability index
1,KDLVIVSNLMGRNIGHP [RPB3],3.1 ± 0.05
2,KDMSPILGELKRVKSYM [LRP1],2.74 ± 0.056
3,KDPSPEILVLYNVCDTS [SIN4],2.9 ± 0.06
4,KDQDSQIELSCNERVPL [SRP72],3.12 ± 0.097
5,KDSLDNTFVTRLNNVFV [RPS4A],3.02 ± 0.078
6,KDSLWQSEHLEAVVDQD [FAS1],3.36 ± 0.14
7,KDWELEARFWHLVELLL [YDL116W/NUP84],2.15 ± 0.086
8,KEDAKATMENIQKGKFT [SRP54],3.29 ± 0.057
9,KEEFSSDESIERLMTWK [RRI2],2.77 ± 0.076
10,KEEGLQQFNLHEILSEP [MED1],3.21 ± 0.15
11,KEEQPKQIIVTRKAMLD [PRP8],3.09 ± 0.082
12,KEHDEIEEQGDALQDVE [DPB4],3.39 ± 0.12
13,KEIMDKIITSRPLQKIM [SIN4],1.23 ± 0.068
14,KEKESKKDSKPAFSFGI [YLR335W/NUP2],3.01 ± 0.068
15,KEKIQHELGINIDSLKF [BRR2],3.07 ± 0.053
16,KEKVEEQEQQQQQIIKI [RPS20],3.38 ± 0.11
17,KEKVSNGGVGVDVELIT [FAS2],3.13 ± 0.062
18,KEKYGLAVSTILGKNFD [SMC1],2.82 ± 0.066
19,KELFEKTFDYVSDHLDA [SMC1],2.87 ± 0.068
20,KELNTERQIFLEACIVR [CDC53],2.23 ± 0.072
21,KELQLEKESVEKQHENA [SMC3],3.32 ± 0.099
22,KENDTVMNTKLLQEGGS [ESC2],3.2 ± 0.092
23,KEPKKLLPNSKNVENTK [DSN1],2.74 ± 0.15
24,KEPPRDRKKDKNVKHSG [RPL12A],3.12 ± 0.084
25,KEPVDDKDVKAKYETSI [FAS2],3.21 ± 0.12

row,Sequence,protein stability index
1,KEQYNRYRDLMISCLMN [MTR3],2.41 ± 0.053
2,KERNQKFQLQNQLEDFI [YIL149C/MLP2],3.25 ± 0.066
3,KESDESKSAFSFGSKPT [YJL041W/NSP1],3.22 ± 0.061
4,KESQLPRIQRADPVALY [RPB5],2.63 ± 0.058
5,KFELGRQPANTKIGAKR [RPS8A],3.1 ± 0.068
6,KFFIMIVKGNIIDEIKC [POP4],1.47 ± 0.055
7,KFLILNENPINKIMTNQ [NUT1],2.75 ± 0.1
8,KFQKLLQNSERDVELSS [SMC4],3.18 ± 0.048
9,KFSDIIQGISKMYSDDT [BRN1],2.71 ± 0.066
10,KGLLIWRLLFIDKFIMV [GRR1],1.35 ± 0.048
11,KGLQIYQSSVQEPFLNS [PRP8],2.94 ± 0.044
12,KGLTYLHLDYNFNLKPT [PRP8],2.12 ± 0.035
13,KGRFAVHRITDEEASYK [RPS4A],3.2 ± 0.091
14,KGSRKSSKAATPDTKNF [SNF12],2.87 ± 0.052
15,KGSVAAKTFLEKRWNDE [PRE8],1.28 ± 0.17
16,KGTGEESNDRINKIVEI [YGR119C/NUP57],3.18 ± 0.16
17,KGTNGKKALKVRTSATF [RPL25],3.03 ± 0.12
18,KGTVFQFEIPISDDDDS [POP4],2.47 ± 0.15
19,KHEDLSLEQRQEVTKFA [RPN4],3.05 ± 0.23
20,KHIKNLEDDSLLSYPIK [RPN12],2.44 ± 0.033
21,KICSSEMINEQKLPQYI [RGR1],2.9 ± 0.13
22,KIELIKNNLLIPDLSIQ [RPN12],2.23 ± 0.042
23,KIENSVQIGAEIILDFL [CSI1],2.83 ± 0.16
24,KIHSILPVMESLDSCTA [YJR042W/NUP85],2.23 ± 0.079
25,KIIALQPNEISFKYLSN [RGR1],2.38 ± 0.12

row,Sequence,protein stability index
1,KIKLLTQATSEDGTSAS [RPC19],2.85 ± 0.079
2,KIPSASIWGNGYSGYGN [SNF5],3.27 ± 0.11
3,KIQASDVNIIGKDRIAI [RPO31],3.05 ± 0.098
4,KIQQQQPGYADLEHKED [QCR6],2.71 ± 0.071
5,KIRMLTQAAEFLSPYIS [IRR1],2.46 ± 0.047
6,KITTSTEDQKVTTNINW [SRP68],3.13 ± 0.072
7,KIVVLSRTGPVFDLCWN [RRP43],2.2 ± 0.048
8,KIYDAFPQTAMLRRHAA [DIS3],2.71 ± 0.079
9,KKASDLVDTPSNNTAAT [NUT1],3.17 ± 0.074
10,KKCLKLAYENKITDKED [POP4],2.785 ± 0.027
11,KKIRFLQLIIFLRTQFL [RGR1],1.27 ± 0.041
12,KKIRNVPVRDGVTIEFS [RPL9A],2.55 ± 0.15
13,KKLATRPKCGDCGSALQ [RPL34A],2.88 ± 0.16
14,KKLELPKYIDELKTRDA [SWP82],3.39 ± 0.092
15,KKLFQKKENLTRDETVS [YML103C/NUP188],3.29 ± 0.12
16,KKLKAVRIIKHTLDIIN [RPS5],2.01 ± 0.048
17,KKMGVPYAIVKGKARLG [RPL8A],2.09 ± 0.16
18,KKNDEVSKPAFSFGAKA [YJL041W/NSP1],3.02 ± 0.15
19,KKQQAALTNELNELKAI [YIL149C/MLP2],1.86 ± 0.07
20,KKRAPRAVKEIKKFAKL [RPL31A],3.15 ± 0.21
21,KKRMNSNQERCHDEGND [RRI1],3.01 ± 0.068
22,KKRSQAKMNAKTDFAKI [RPC82],3.23 ± 0.12
23,KKTATEPKQKANAVQNN [SRP21],3.19 ± 0.082
24,KKTCSSCGYPAAKTRSY [RPL37A],3.17 ± 0.11
25,KKTCSSCGYPSAKTRSH [RPL37B],2.51 ± 0.044

row,Sequence,protein stability index
1,KKVKLAVLSYYKVDAEG [RPS31],2.32 ± 0.082
2,KLALAENDTNMNETLNL [SMC4],3.15 ± 0.077
3,KLDSKKTVPFQVNQLQR [SSN3],3.28 ± 0.042
4,KLFNKWSFEEVEVKDAS [RPS5],1.77 ± 0.072
5,KLHMGTDDVRLAPELNQ [RPL31A],3.25 ± 0.083
6,KLIPKLYRYRFDPFQAV [ECM29],2.77 ± 0.14
7,KLKEYLDLVARTATLSN [YDL116W/NUP84],2.88 ± 0.16
8,KLLASTEENKANTNSVT [YIL149C/MLP2],3.24 ± 0.066
9,KLLLLNTSAIQETASPL [YIL149C/MLP2],2.42 ± 0.21
10,KLRKIAISKKNKSLKYV [LIN1],1.33 ± 0.059
11,KLTGDDQKFGVPVRSFK [ASC1],3.16 ± 0.12
12,KLTRELEKKFPDRHVIF [RPS7B],2.94 ± 0.049
13,KLVTNVVDPKTSIEKSS [YML103C/NUP188],2.71 ± 0.049
14,KLWRKIARLYSCISISD [RRI2],2.1 ± 0.075
15,KLYVDAVHSIIALSRRF [YDL116W/NUP84],1.81 ± 0.065
16,KLYVSHIQVNQAPKQRR [RPL17A],1.92 ± 0.068
17,KMMSFQANPTEESISKF [RPB5],3.17 ± 0.076
18,KNAANTEGHKGHEELKR [ISW2],3.16 ± 0.081
19,KNHFRKHWQERVKVHFD [RPL13A],1.71 ± 0.05
20,KNIKIIMATNRLDILDP [RPT6],2.55 ± 0.079
21,KNKSGKIFVETKFSKLI [FAS1],2.69 ± 0.076
22,KNKYGEINSEDYDNKTK [SRP68],2.89 ± 0.16
23,KNLKHIDVTFTKVNNQL [RPL9A],2.58 ± 0.053
24,KNREVVQVSKAGGLPMD [RRP45],2.84 ± 0.097
25,KNVENTKNLSILTSKVN [DSN1],2.36 ± 0.049
